The DeepSol protein solubility set

Test: soluble on expression in E. coli; label from the status in PepcDB or PDB records

Row | Sequence | soluble on expression in E. coli
1 | MGSDKIHHHHHHMKRIRNISVVGMGAVGCAYGRKLYKLNPNNFKIIADDKRKEKLTKNGFLINGEKYDFKCVSPNENLGKDDLIIIAVKYNQLEEAIEEIRNYVGENTIILSFLNGIKSEEEIGKVYGMDKILYSYCVLESTRKGSEVYVSDGYKIVFGQKESDNKYEKIKAVRELFDDAEIDYEIPVDIIHSMWSKFMFNVGINPVSAILKANYGMLQKNKYARETMVSAMMEVINISQKASVNLKIEEINHWLAVLDECELHGKTSMCQDILMGRKTEIDMLSGEVCALGEKYGVDTPVNRTLFNMVKSIE | not soluble
2 | MTVDFYSFAKGIVKGVLTPFYRIQTIGIEQFPKEGGVLLCANHISNLDPPVIGITAPRPIRFMAKEELFRAPVVKTLVKSLHAFPVKRGMNDRQALRTGLEVLKQGEVLGIFPEGTRSKDGRLKKALPGVGFFALRTDAAVVPCAIVGPYRPFVPLKVVYGAPVDMAPLRARKASPEEAADYIMDHIRRLLEEHQRA | not soluble
3 | MAQHVKFHQYFFQWMQLYKLDAVRPVTYRKYEMSHRQLVTLAPDLKMADLSRLTYQQLLNDYAETHERQTTMDFHRHLKGSLIDALEEGFIDRDPTRKAIIKGIKLEHHHHHH | not soluble
4 | MAHHHHHHMSLAREKYLKRKRELLENINLIDIGEKISNTGKNEGNSKSDNIKKESRSRDFIKNDNRTRESFKKNDRGEYIDNDRKHLKSNNYNMLSSYNNKDIKNENRDLRKSPYDHRKLNNKNEQDILSNKTKRSSTNLQYNNDYAFVNKENNVLINNSSKMVNSTNNINEYLKDLNNIDINDSLILLFYVCKLLLDMCSKVNMNQSSMNTSVTSVEMLRDMKSKNRKNIKLFKINILNNILIYLSDENVNTLTQGNPNYKDNNFEKRHEEIRIDEKCIDIEHVGINIVIKVIYINNIKKLIFKYLYLINNNFKHDGVGNINMYDGRLNKNEEQNYFTTPLMEHKNINFMNN | not soluble
5 | MGSDKIHHHHHHSPTTTVTTTDASVTTTPPTTTPPTTAVVTDCTTCTAALITLTQGTDGAVDATPVEGVDATGCATITYTCENTPVDAQNVIFLTFYGGGIDRGVDQGTGSLNVLLNCVDGAWVRGGLVIDEILCQVI | not soluble
6 | MSILEKIFKTRKDITYMLDLDMIEDLSQQAYVKRLAIDSCIEFVARAVAQSHFKVLEGNRIQKNDVYYKLNIKPNTDLSSDSFWQQVIYKLIYDNEVLIVVSDSKELLIADSFYREEYALYDDIFKDVTVKDYTYQRTFTMQEVIYLKYNNNKVTHFVESLFEDYGKIFGRMIGAQLKNYQIRGILKSASSAYDEKNIEKLQAFTNKLFNTFNKNQLAIAPLIEGFDYEELSNGGKNSNMPFSELSELMRDAIKNVALMIGIPPGLIYGETADLEKNTLVFEKFCLTPLLKKIQNELNAKLITQSMYLKDTRIEIVGVNKKDPLQYAEAIDKLVSSGSFTRNEVRIMLGEEPSDNPELDEYLITKNYEKANSGENDEKEKDENTLKGGDEDESGD | not soluble
7 | MGSDKIHHHHHHENLYFQGMKIKVALLDKDKEYLDRLTGVFNTKYADKLEVYSFTDEKNAIESVKEYRIDVLIAEEDFNIDKSEFKRNCGLAYFTGTPGIELIKDEIAICKYQRVDVIFKQILGVYSDMAANVATISGENDKSSVVIFTSPCGGVGTSTVAAACAIAHANMGKKVFYLNIEQCGTTDVFFQAEGNATMSDVIYSLKSRKANLLLKLESCIKQSQEGVSYFSSTKVALDILEISYADIDTLIGNIQGMDNYDEIIVDLPFSLEIEKLKLLSKAWRIIVVNDGSQLSNYKFMRAYESVVLLEQNDDINIIRNMNMIYNKFSNKNSEMLSNISIKTIGGAPRYEHATVRQIIEALTKMEFFEEILQ | soluble
8 | MSLGGSIKSPQSLTIDIIKRDYLNFKNKKILSFKDIKPKYDSQSDYHGNAIYYFMFYNKLKEFENIQNEKFKIKKEILKSYIIIIDEINRGNVSKIFGELITLIEPSKRIGEKEELKVTLPYSGEKFGVPKNVYIIGTMNTADRSITSLDTALRRRFEFVEMMPDVSKLSMDCEGINLQELLKAINTRIEYLLDREKTIGHAFFVSVENLEDLKKVFQNKIIPLLQEYFYNDYALINAVLNDNDMIFEDKKDDKYLQKIKNLDSVNSERSIYNIASFDDKIWDKIEIYQAIYNDEIANKLKNEGHHHHHH | not soluble
9 | MPENLQLVIITGMSGAGKTVAVQSFEDMGYFCIDNLPPSLIPKFWELIKESGKVTKIALVIDLRSRTFFREIQDMLVELENTNFIDTTILFLDATDEELVSRYKETRRAHPMAMDGLVTEGIRKERAMLEEIKADAQLVIDTTDLSPRQLRERLNKELATRETHEFRVEMVSFGFKYGLPIDADIVMDVRFLPNPHYIDELRPLTGMDQPVYDYVMGFPETDEFYTKFIDLLRTVLPGYKKEGKSSVTIAIGCTGGQHRSVALTERVGAELKEEDYHVNITHRDRLKRKETVNRS | not soluble
10 | MHHHHHHVSLDKAVIARLRKGGEEFEVLVDPYLARDLKEGKEVNFEDLLAAEEVFKDAKKGERASVDELRKIFGTDDVFEIARKIILEGEVQITAEQRREMLEAKRKQIINFISRNTIDPRTNAPHPPSRIERALEEAKVHIDIFKSVEAQVKDIVKALKPILPLKFEEMEIAIKIPPEHTGRAISALYNFGGVTREEWQRDGSWICVMRIPSGMYGDLMDLLGKVAKGEALTKVLRRIG | soluble
11 | MHPTYSAVQARLLEANRLSPELLAKSLCIIGAHHVDYADIYCQRTAYESWHLEEGIVKSGSFQINQGVGVRAVSGDKTAFAYADSLCIDSINRSARAVRAIGAAGGKVSAKMPSETRGKPVCSASDPIAGLDSAAKVALLNKVEAIAKAADPRIVQVMAGLTCEYDMVYLARLDGKHAADIRPMVRLNVTVIAKQGERREQGSAGGGGRYDLAYFDENLVHRFVDAAVKQALTNLESRPAPAGEMTVVLGNGWPGVLLHEAVGHGLEGDFNRKGTSVFSGRIGERVAAKGVTVVDQGDIAGRRGSLNIDDEGNETRRTVLIEDGILVGYMQDETNARLTGTQSTGNGRRESYASAPMPRMTNTFMENGSYEPEEIIASIDKGIYAVNFGGGQVDITSGKFVFSASEAWWVEGGRLQYPVKGATIIGNGPEVLKHVSMIGNDTALDSGVGVCGKEGQSVPVGVGQPTLRIDAGLTVGGSAI | not soluble
12 | GHMENKVINFKKIIDSRGSLVAIEENKNIPFSIKRVYYIFDTKGEEPRGFHANKKLEQVLVCLNGSCRVILDDGNIIQEITLDSPAVGLYVGPAVWHEMHDFSSDCVMMVLASDYYDETDYIRQYDNFKKYIAKINLEKEG | soluble
13 | MGSDKIHHHHHHMVKIKEGFKGERLVSLPEELLASYRREPLINNLYVRKIGFFPRVKYHFLQKEHGCDYAMLIYCTEGKGWYRILGKQYTVEKYQYIIIPPGIPYSFGADEGDPWTIYWLHFQGKLCDQFLPSHPVPVTISPNEYSRLQDRLRLFEEIYSSFSMGYIKEYMIYSSMCLYNFLASFIYLEQFRHIMIPSQKEYPFTARVIHYMRENIQQNLTLKELASYFKYSPSHFSALFFGETGVSPMNYFIRLKIQKACEYIELTNMKLNEIATHLGFEDAAYFSRTFTKVMGCSPSVYRKKEMEI | not soluble
14 | MRLIPLGAAALAGALALAPAARAEMSAAEREAVRAEVRAYLLENPEVLMEAFTALEQRQQLDQVNADLARLQDHSSEIYTDPASWAGGNLQGDITVVEFIDYRCGYCRKANAEVEELVASDGNIRFVLKEYPILGEESVLASRFAISVLQIAGPEPYKAVHDKLITFRGDITTEALGRLADEMKLDRAAILAHMDKDEVTAVIAANHKLAETLEISGTPTFVVDRTMVRGYVPLDGMRQIVEGQRKG | not soluble
